What was measured:
HLA-A*02:50 = assay: IEDB peptide-MHC binding, purified MHC/competitive/fluorescence; filed as Kd, often an IC50 or EC50 that approximates it; ≥ and ≤ were set here for values at or beyond the usual limits of such assays; conditions: source organism: Yersinia pestis Nepal516
HLA-B*15:01 [1] = assay: IEDB peptide-MHC binding, purified MHC/direct/fluorescence; filed as Kd, often an IC50 or EC50 that approximates it; ≥ and ≤ were set here for values at or beyond the usual limits of such assays; conditions: source organism: Yersinia pestis
HLA-B*44:02 = assay: as above; conditions: source organism: Yersinia pestis
HLA-B*40:01 = assay: as above; conditions: source organism: Yersinia pestis
HLA-B*08:02 = assay: as above; conditions: source organism: Yersinia pestis CA88-4125
HLA-A*02:19 [2] = assay: as above; conditions: source organism: Yersinia pestis CA88-4125
HLA-B*07:02 = assay: as above; conditions: source organism: Yersinia pestis
HLA-B*27:05 = assay: as above; conditions: source organism: Yersinia pestis
HLA-A*69:01 [3] = assay: as above; conditions: source organism: Yersinia pestis
HLA-A*02:01 [4] = assay: as above; conditions: source organism: Yersinia pestis
HLA-A*03:01 [5] = assay: as above; conditions: source organism: Yersinia pestis
HLA-A*02:16 [6] = assay: as above; conditions: source organism: Yersinia pestis CA88-4125
HLA-B*08:01 = assay: as above; conditions: source organism: Yersinia pestis CA88-4125
HLA-B*58:01 = assay: as above; conditions: source organism: Yersinia pestis
HLA-A*31:01 [7] = assay: as above; conditions: source organism: Yersinia pestis
HLA-A*02:11 [8] = assay: as above; conditions: source organism: Yersinia pestis CA88-4125
HLA-A*11:01 = assay: as above; conditions: source organism: Yersinia pestis
HLA-A*02:06 = assay: as above; conditions: source organism: Yersinia pestis CA88-4125
HLA-A*02:12 [9] = assay: as above; conditions: source organism: Yersinia pestis CA88-4125
HLA-A*02:03 [10] = assay: as above; conditions: source organism: Yersinia pestis CA88-4125
HLA-A*01:01 = assay: as above; conditions: source organism: Yersinia pestis
HLA-B*46:01 = assay: IEDB peptide-MHC binding, purified MHC/competitive/fluorescence; filed as Kd, often an IC50 or EC50 that approximates it; ≥ and ≤ were set here for values at or beyond the usual limits of such assays; conditions: source organism: Entamoeba histolytica HM-1:IMSS
HLA-B*51:01 = assay: as above; conditions: source organism: Entamoeba histolytica HM-1:IMSS
HLA-B*15:01 [11] = assay: as above; conditions: source organism: Entamoeba histolytica HM-1:IMSS
HLA-A*26:01 = assay: as above; conditions: source organism: Entamoeba histolytica HM-1:IMSS
HLA-B*57:01 = assay: as above; conditions: source organism: Entamoeba histolytica HM-1:IMSS
HLA-B*39:01 = assay: as above; conditions: source organism: Entamoeba histolytica HM-1:IMSS
HLA-B*15:17 = assay: as above; conditions: source organism: Entamoeba histolytica HM-1:IMSS
HLA-A*02:19 [12] = assay: as above; conditions: source organism: Entamoeba histolytica HM-1:IMSS
HLA-A*25:01 = assay: as above; conditions: source organism: Entamoeba histolytica HM-1:IMSS
HLA-A*29:02 = assay: as above; conditions: source organism: Entamoeba histolytica HM-1:IMSS
HLA-A*69:01 [13] = assay: as above; conditions: source organism: Entamoeba histolytica HM-1:IMSS
HLA-A*02:01 [14] = assay: as above; conditions: source organism: Entamoeba histolytica HM-1:IMSS
HLA-B*18:01 = assay: as above; conditions: source organism: Entamoeba histolytica HM-1:IMSS
HLA-A*03:01 [15] = assay: as above; conditions: source organism: Entamoeba histolytica HM-1:IMSS
HLA-A*23:01 = assay: as above; conditions: source organism: Entamoeba histolytica HM-1:IMSS
HLA-A*02:16 [16] = assay: as above; conditions: source organism: Entamoeba histolytica HM-1:IMSS
HLA-B*27:03 = assay: as above; conditions: source organism: Entamoeba histolytica HM-1:IMSS
HLA-A*80:01 = assay: as above; conditions: source organism: Entamoeba histolytica HM-1:IMSS
HLA-A*02:11 [17] = assay: as above; conditions: source organism: Entamoeba histolytica HM-1:IMSS
HLA-A*68:02 = assay: as above; conditions: source organism: Entamoeba histolytica HM-1:IMSS
HLA-A*02:12 [18] = assay: as above; conditions: source organism: Entamoeba histolytica HM-1:IMSS
HLA-A*02:03 [19] = assay: as above; conditions: source organism: Entamoeba histolytica HM-1:IMSS
HLA-A*24:03 = assay: as above; conditions: source organism: Entamoeba histolytica HM-1:IMSS
HLA-A*31:01 [20] = assay: IEDB peptide-MHC binding, purified MHC/competitive/fluorescence; ≥ and ≤ were set here for values at or beyond the usual limits of such assays; conditions: source organism: Homo sapiens

Sequence FLPPQIPVI has a Kd (HLA-A*02:50) of at most 0.0001 µM, a Kd (HLA-B*15:01 [1]) of 0.477 µM and a Kd (HLA-B*44:02) of at least 20 µM. The Kd (HLA-B*40:01) was at least 20 µM, the Kd (HLA-B*08:02) was at least 20 µM and the Kd (HLA-A*02:19 [2]) was 0.018 µM. It also gave a Kd (HLA-B*07:02) of at least 20 µM, a Kd (HLA-B*27:05) of at least 20 µM and a Kd (HLA-A*69:01 [3]) of 4.7 µM. The Kd (HLA-A*02:01 [4]) was 0.0214 µM, the Kd (HLA-A*03:01 [5]) was at least 20 µM and the Kd (HLA-A*02:16 [6]) was at most 0.001 µM. It also gave a Kd (HLA-B*08:01) of at least 20 µM, a Kd (HLA-B*58:01) of at least 20 µM and a Kd (HLA-A*31:01 [7]) of at least 20 µM. For the same sequence, the Kd (HLA-A*02:11 [8]) was at most 0.001 µM, the Kd (HLA-A*11:01) was at least 20 µM and the Kd (HLA-A*02:06) was at most 0.001 µM. For the same sequence, the Kd (HLA-A*02:12 [9]) was at most 0.001 µM, the Kd (HLA-A*02:03 [10]) was at most 0.001 µM and the Kd (HLA-A*01:01) was at least 20 µM.
LICYQIEYI was tested, and the Kd (HLA-B*46:01) was at least 20 µM, the Kd (HLA-B*51:01) was at least 20 µM and the Kd (HLA-B*15:01 [11]) was at least 20 µM. For the same sequence, the Kd (HLA-A*26:01) was at least 20 µM, the Kd (HLA-B*57:01) was at least 20 µM and the Kd (HLA-B*39:01) was at least 20 µM. It also gave a Kd (HLA-B*15:17) of at least 20 µM, a Kd (HLA-A*02:19 [12]) of at least 20 µM and a Kd (HLA-A*25:01) of at least 20 µM. For the same sequence, the Kd (HLA-A*29:02) was at least 20 µM, the Kd (HLA-A*69:01 [13]) was at least 20 µM and the Kd (HLA-A*02:01 [14]) was at least 20 µM. It also gave a Kd (HLA-B*18:01) of at least 20 µM, a Kd (HLA-A*03:01 [15]) of at least 20 µM and a Kd (HLA-A*23:01) of at least 20 µM. For the same sequence, the Kd (HLA-A*02:16 [16]) was at least 20 µM, the Kd (HLA-B*27:03) was at least 20 µM and the Kd (HLA-A*80:01) was at least 20 µM. The Kd (HLA-A*02:11 [17]) was 0.0008 µM, the Kd (HLA-A*68:02) was at least 20 µM and the Kd (HLA-A*02:12 [18]) was at least 20 µM. For the same sequence, the Kd (HLA-A*02:03 [19]) was at least 20 µM and the Kd (HLA-A*24:03) was at least 20 µM.
TMGTGTFGR showed an IC50 (HLA-A*31:01 [20]) of 0.388 µM.

Reference: the Immune Epitope Database (IEDB)
